# Legend:
# [1] = biological target: T1, G9a and GLP (Homo sapiens, UniProt Q96KQ7+Q9H9B1); test: Triple SILAC pull-down after UNC0638 treatment of 293T cells, DMSO/UNC0638 ratio of protein captured by 3×MBT; format: cell-based; settings: for Relative to UNC0638 UNC Heavy / Relative to UNC0638 UNC Light: SILAC ratio DMSO/UNC0638 of protein pulled down with 3xMBT; for Relative to UNC0638 UNC Heavy: UNC0638 in heavy SILAC media; for Relative to UNC0638 UNC Light: UNC0638 in light SILAC media; for Protein Ratios DMSO/UNC0638: SILAC ratio of protein captured by 3xMBT, 293T cells treated 24 hours with UNC0638 at 2.5 μM or DMSO; for Relative to UNC0638 Average: average of UNC Light and UNC Heavy experiments; for Candidate G9a/GLP target: reduced association with 3xMBT after UNC0638 treatment;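 as to all read-outs here: mass spectrometry (Q-Exactive) SILAC quantitation, DMSO/UNC0638 ratio computed after subtracting 3×MBTD355N mutant pull-down background, only proteins with at least twofold 3×MBT over mutant signal considered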
# T1 construct: endogenous in cells; host or cells: HEK 293T
# T1 sequence (Q96KQ7 2-1210 limits assumed): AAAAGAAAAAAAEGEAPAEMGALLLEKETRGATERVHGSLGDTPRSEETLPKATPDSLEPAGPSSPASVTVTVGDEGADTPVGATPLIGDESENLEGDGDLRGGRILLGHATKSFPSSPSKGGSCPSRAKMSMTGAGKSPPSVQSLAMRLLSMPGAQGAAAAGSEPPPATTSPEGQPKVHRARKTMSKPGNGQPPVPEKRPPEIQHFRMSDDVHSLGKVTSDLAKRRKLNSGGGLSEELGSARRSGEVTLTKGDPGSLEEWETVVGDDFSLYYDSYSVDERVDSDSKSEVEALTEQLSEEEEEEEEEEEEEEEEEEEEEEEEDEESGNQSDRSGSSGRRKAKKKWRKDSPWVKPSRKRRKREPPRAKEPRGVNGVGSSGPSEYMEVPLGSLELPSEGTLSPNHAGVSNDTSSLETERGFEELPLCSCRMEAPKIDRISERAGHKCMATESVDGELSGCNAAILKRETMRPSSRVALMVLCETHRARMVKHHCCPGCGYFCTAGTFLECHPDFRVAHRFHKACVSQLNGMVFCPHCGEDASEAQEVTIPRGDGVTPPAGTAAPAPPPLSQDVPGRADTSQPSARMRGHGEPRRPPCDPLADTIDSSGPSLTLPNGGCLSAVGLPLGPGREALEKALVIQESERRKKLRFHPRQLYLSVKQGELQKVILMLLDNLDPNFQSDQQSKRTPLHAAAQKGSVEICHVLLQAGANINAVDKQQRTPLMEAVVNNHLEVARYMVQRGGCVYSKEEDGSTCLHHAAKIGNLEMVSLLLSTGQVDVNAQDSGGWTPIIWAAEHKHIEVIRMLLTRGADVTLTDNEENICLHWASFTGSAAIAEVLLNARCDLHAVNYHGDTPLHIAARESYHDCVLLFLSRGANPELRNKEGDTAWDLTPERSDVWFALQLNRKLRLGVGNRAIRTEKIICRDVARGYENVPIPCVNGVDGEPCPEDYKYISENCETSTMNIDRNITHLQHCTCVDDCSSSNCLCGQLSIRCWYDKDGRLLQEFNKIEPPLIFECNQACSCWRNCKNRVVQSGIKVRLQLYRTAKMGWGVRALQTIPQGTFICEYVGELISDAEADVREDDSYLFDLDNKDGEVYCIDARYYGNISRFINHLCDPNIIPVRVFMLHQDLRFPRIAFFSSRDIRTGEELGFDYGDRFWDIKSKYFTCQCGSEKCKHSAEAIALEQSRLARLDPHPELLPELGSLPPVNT
# T1 sequence (Q9H9B1 2-1298 limits assumed): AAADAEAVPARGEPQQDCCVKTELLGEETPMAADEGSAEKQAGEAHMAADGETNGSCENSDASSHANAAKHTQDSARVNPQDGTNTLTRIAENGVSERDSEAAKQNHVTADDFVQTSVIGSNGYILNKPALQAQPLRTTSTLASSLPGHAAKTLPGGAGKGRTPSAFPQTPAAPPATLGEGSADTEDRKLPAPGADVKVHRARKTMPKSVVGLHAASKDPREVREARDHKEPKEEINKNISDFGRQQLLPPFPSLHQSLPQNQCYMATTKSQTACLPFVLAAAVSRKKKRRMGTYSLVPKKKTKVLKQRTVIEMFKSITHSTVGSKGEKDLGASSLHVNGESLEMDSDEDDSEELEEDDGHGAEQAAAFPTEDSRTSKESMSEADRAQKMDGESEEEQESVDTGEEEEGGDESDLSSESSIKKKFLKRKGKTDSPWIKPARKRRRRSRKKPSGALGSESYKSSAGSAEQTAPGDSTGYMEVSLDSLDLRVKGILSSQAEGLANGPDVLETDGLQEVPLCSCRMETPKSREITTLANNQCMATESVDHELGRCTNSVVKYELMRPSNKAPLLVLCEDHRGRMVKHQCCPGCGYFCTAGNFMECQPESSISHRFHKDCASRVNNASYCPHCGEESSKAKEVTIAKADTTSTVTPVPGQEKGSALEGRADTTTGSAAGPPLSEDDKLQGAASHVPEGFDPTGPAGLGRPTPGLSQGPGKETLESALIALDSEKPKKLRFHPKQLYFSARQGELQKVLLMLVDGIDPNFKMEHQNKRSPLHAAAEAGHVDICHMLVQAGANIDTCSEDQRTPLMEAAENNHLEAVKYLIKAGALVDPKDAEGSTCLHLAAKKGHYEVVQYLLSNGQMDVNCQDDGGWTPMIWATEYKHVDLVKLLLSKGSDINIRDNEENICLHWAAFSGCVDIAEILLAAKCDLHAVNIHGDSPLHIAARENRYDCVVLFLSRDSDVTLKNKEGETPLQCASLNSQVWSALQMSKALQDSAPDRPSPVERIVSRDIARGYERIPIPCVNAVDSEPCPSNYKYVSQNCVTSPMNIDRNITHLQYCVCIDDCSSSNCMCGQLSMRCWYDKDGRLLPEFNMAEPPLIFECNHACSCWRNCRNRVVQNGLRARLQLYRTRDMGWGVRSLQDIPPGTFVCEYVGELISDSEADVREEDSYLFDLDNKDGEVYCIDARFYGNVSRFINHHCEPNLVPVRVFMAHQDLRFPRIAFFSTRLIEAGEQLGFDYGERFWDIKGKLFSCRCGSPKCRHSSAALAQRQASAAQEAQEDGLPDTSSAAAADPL
# [2] = test system: 3×MBT domain of L3MBTL1; test: Triple SILAC pull-down, 3xMBT/3xMBTD355N ratio (cytoplasmic, nuclear and chromatin fractions of 293T cells); format: binding, human; settings: SILAC ratio; for 3xMBT/D355N UNC Heavy / 3xMBT/D355N UNC Light: pull-down 3xMBT vs 3xMBTD355N; for 3xMBT/D355N UNC Heavy: experiment with UNC0638 in heavy SILAC media; for 3xMBT/D355N UNC Light: experiment with UNC0638 in light SILAC media; for Protein Ratios 3xMBT/D355N: pull-down by 3xMBT vs 3xMBTD355N, 293T cells;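 as to all read-outs here: proteins quantified with MaxQuant, requiring at least two unique peptides and quantification in both label directions, normalized to the mean of proteins from a digested loading control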
Substance,Relative to UNC0638 UNC Heavy [1] [log base 2],Relative to UNC0638 UNC Light [1] [log base 2],Protein Ratios DMSO/UNC0638 [1],Relative to UNC0638 Average [1] [log base 2],Candidate G9a/GLP target [1],3xMBT/D355N UNC Heavy [2] [log base 2],3xMBT/D355N UNC Light [2] [log base 2],Protein Ratios 3xMBT/D355N [2]
DNA ligase 1,0.83,1.06,1.9,0.95,✓,3.18,1.96,5.9
MCM7: protein with methylated lysine identified in 3xMBT pull-down,0.12,0.10,–,0.11,–,2.23,2.52,–
MSH6: protein with methylated lysine identified in 3xMBT pull-down,0.18,0.06,–,0.12,–,2.51,2.41,–

# Further lines, with some results ahead:
Relative to UNC0638 UNC Heavy [1] [log base 2],Relative to UNC0638 UNC Light [1] [log base 2],Protein Ratios DMSO/UNC0638 [1],Relative to UNC0638 Average [1] [log base 2],Candidate G9a/GLP target [1],Substance,3xMBT/D355N UNC Heavy [2] [log base 2],3xMBT/D355N UNC Light [2] [log base 2],Protein Ratios 3xMBT/D355N [2]
0.83,0.29,1.5,0.56,✓,Protein Wiz,0.93,2.02,2.7
0.25,0.29,–,0.27,–,RBM25: protein with methylated lysine identified in 3xMBT pull-down,2.41,2.28,–
0.00,0.26,–,0.13,–,SSRP1: protein with methylated lysine identified in 3xMBT pull-down,4.47,4.11,–
